According to publication PMC9307627, “Targeting loop3 of sclerostin preserves its cardiovascular protective action and promotes bone formation”:

T1: sclerostin loop3m (human, UniProt Q9BQB4 135-164, R138A;Y139A;R140A;Q142A;R143A;V144A;G151A;E152A;R157A;K158A;V159A)
T1 chain: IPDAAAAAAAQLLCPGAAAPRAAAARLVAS

T2: sclerostin loop1 (human, UniProt Q9BQB4 81-104)
T2 chain: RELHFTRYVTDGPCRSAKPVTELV

T3: sclerostin loop3 (WT) (human, UniProt Q9BQB4 135-164)
T3 chain: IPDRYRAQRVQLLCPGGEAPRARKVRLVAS

T4: sclerostin loop2 (human, UniProt Q9BQB4 110-133)
T4 chain: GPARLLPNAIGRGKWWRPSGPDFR


Legend:
Test in all cases: ELONA; ELONA: 160 ng protein coated in PBS; biotinylated aptamer 45 min at RT; wash in PBS pH 7.4, 1 mM MgCl2, 5 mM imidazole, 0.05% Tween 20; streptavidin-HRP/TMB, hyperbolic fit
[1] = target: full-length human sclerostin (FL hSOST) (human, UniProt Q9BQB4 25-213); conditions: protein: recombinant; tags: His6; label: biotin
[2] = target: T1, sclerostin loop3m; conditions: label: biotin
[3] = target: T2, sclerostin loop1; conditions: label: biotin
[4] = target: T3, sclerostin loop3 (WT); conditions: label: biotin
[5] = target: T4, sclerostin loop2; conditions: label: biotin

full-length human sclerostin (FL hSOST), sequence (Q9BQB4 25-213): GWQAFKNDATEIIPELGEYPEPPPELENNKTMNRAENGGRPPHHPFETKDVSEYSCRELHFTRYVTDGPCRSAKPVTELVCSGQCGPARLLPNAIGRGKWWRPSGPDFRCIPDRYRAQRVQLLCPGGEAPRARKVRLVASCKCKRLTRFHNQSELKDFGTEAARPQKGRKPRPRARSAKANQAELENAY

Binder	Kd [1]	further results
TGGGGGTAGGGGGTCCTTGGCTACGGTGATTCGGATGTGA (ssDNA) [aptamer candidate 51]	62.2 nM	
TGGGGGTAGGGGGACCCTGGCTAGTTAGTCACCGTTTCGA (ssDNA) [aptamer candidate 9]	3.4 nM	
CCCAGACGAGACACCTCATGCTTTTCCCCGGGGGAGGGGTAT (ssDNA) [aptamer candidate 132]	42.2 nM	
GAGGGGGCCAACTATGCTTAGTGGGGGGGTTGACCGTATC (ssDNA) [aptamer candidate 15]	4 nM	
TGGAAGGGTGGGGGCGGGGGGTCCTCGCCTCGAACGTACG (ssDNA) [aptamer candidate 6]	4.2 nM	
GGGTGGATTAAGGGGGCCCCGTCTGTAGGCGATTGGCGAA (ssDNA) [aptamer candidate 46]	45.6 nM	
CGGGGTGTGGGTAAATCGTTAGAAAGATTAAACAGCTGCC (ssDNA) [aptscl56m]		binding result [1]: no binding
CGGGGTGTGGGTTCGTCGTTAGCTTGATTTGGCAGCTGCC (ssDNA) [aptscl56]	43.1 nM	binding result [2]: binds; binding result [3]: no binding; binding result [4]: binds; binding result [5]: no binding
